Substrate in this data set: CC[C@H](C)[C@H](NC(C)=O)C(=O)NCC(=O)N[C@@H](CC(N)=O)C(=O)N[C@@H](CCCNC(=N)N)C(=O)Nc1ccc(COc2ccc3c(c2)OC2=C(/C=C/C4=[N+](C)c5ccccc5C4(C)C)CCCC2=C3)cc1
Description: fluorogenic NIR assay, Michaelis-Menten fit. The following applies: Tris buffer pH 8, 37 °C, 20 nM hGzmA, cleaved after Arg. Format: biochemical, Homo sapiens.

B1: human GzmA (hGzmA), active recombinant (Homo sapiens) (protein)
chain: IIGGNEVTPHSRPYMVLLSLDRKTICAGALIAKDWVLTAAHCNLNKRSQVILGAHSITREEPTKQIMLVKKEFPYPCYDPATREGDLKLLQLMEKAKINKYVTILHLPKKGDDVKPGTMCQVAGWGRTHNSASWSDTLREVNITIIDRKVCNDRNHYNFNPVIGMNMVCAGSLRGGRDSCNGDSGSPLLCEGVFRGVTSFGLENKCGDPRGPGVYILLSKKHLNWIIMTIKGAV
notes: active recombinant enzyme (not the pro-form), dimeric
For B1, the Km is on record as 6.9±1.0×10^-6 M; the kcat (in general, the number of substrate molecules converted per active site and unit of time at saturation) was 0.26 ± 0.04 s⁻¹.

The values above are taken from paper PMC10953043, “Fluorogenic Granzyme A Substrates Enable Real‐Time Imaging of Adaptive Immune Cell Activity” (Angewandte Chemie (Weinheim an Der Bergstrasse, Germany), 2023).
